Measured values as given in patent US20240010735A1 (EISAI R AND D MANAGEMENT, published 2024).

Key:
Test in all cases: ELISA: Fc-His proteins (1 nM) captured on anti-6-His antibody, antibody B 10 µg/mL with human IgG 100 µg/mL, HRP anti-human kappa light chain antibody, OD450 as % of mouse EphA4-Fc-His
[1] = biological target: T1, mouse EphA3 extracellular region-Fc-His protein (mouse; human, UniProt P29319 21-540)
T1 construct: extracellular domain; not shown: Fc region of human IgG1; histidine tag
T1 sequence (looked up): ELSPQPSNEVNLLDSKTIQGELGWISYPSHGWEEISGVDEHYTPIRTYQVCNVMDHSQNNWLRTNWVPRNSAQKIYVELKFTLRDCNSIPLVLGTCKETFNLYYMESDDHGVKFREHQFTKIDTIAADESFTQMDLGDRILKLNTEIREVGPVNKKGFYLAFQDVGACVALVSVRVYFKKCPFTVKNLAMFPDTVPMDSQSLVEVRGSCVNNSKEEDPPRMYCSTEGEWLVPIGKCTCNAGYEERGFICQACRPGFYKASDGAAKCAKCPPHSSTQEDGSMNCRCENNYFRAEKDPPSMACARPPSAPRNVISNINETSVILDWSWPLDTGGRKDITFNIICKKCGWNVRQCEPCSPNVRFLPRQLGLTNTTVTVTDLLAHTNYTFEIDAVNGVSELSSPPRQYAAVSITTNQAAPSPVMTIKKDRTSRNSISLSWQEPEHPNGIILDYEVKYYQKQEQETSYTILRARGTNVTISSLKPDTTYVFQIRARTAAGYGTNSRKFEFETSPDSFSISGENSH
Procedure: (§1) Rabbit anti-6-His antibodies (Bethyl Laboratories) were coated onto the wells of a 96-well plate (Nunc). After incubating at 4° C. overnight, the wells were blocked at room temperature for 1 hour by 1% Block Ace (DS Pharma Biomedical). After washing 3 times with 0.05% Tween 20/PBS (Thermo […]), each Eph receptor of mouse extracellular region-Fc-His protein (final concentration 1 nM) was seeded into each well, and incubated at room temperature for 1 hour. After washing 3 times, human IgG solution (100 μg/mL, Sigma) and antibody B (10 μg/mL) were supplemented to the wells, and incubated at room temperature for 1 hour. Horseradish peroxidase-labeled goat anti-human Kappa Light Chain antibody (IBL) was added, and incubated at room temperature for 1 hour. After washing 3 times, TMBZ (3,3′,5,5′-tetramethylbenzidine, Sigma) solution was added to the wells, and upon confirmation of modest coloring, an equal amount of quenching solution (1 N H₂SO₄, Wako Pure Chemicals) was added to the wells, and absorbance at 450 nm was read by a microplate reader (PerkinElmer).

[2] = biological target: T2, mouse EphB2 extracellular region-Fc-His protein (mouse; human, UniProt P54763 19-543)
T2 construct: extracellular domain; not shown: Fc region of human IgG1; histidine tag
T2 sequence (looked up): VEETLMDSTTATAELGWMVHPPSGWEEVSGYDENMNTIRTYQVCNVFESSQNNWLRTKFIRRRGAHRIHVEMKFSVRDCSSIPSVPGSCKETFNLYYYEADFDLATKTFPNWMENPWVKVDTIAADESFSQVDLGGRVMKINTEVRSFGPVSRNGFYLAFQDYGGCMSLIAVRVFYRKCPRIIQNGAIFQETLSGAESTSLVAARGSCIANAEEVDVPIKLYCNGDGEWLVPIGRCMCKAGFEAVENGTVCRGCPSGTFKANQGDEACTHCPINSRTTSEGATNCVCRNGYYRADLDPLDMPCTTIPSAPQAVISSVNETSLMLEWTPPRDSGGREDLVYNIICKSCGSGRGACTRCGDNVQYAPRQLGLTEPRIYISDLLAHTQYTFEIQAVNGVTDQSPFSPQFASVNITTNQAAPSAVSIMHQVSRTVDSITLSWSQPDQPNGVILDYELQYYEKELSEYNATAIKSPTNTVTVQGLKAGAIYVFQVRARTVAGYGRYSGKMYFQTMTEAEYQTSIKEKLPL
Procedure: as §1

[3] = biological target: T3, mouse EphB6 extracellular region-Fc-His protein (mouse; human, UniProt O08644 33-591)
T3 construct: extracellular domain; not shown: Fc region of human IgG1; histidine tag
T3 sequence (looked up): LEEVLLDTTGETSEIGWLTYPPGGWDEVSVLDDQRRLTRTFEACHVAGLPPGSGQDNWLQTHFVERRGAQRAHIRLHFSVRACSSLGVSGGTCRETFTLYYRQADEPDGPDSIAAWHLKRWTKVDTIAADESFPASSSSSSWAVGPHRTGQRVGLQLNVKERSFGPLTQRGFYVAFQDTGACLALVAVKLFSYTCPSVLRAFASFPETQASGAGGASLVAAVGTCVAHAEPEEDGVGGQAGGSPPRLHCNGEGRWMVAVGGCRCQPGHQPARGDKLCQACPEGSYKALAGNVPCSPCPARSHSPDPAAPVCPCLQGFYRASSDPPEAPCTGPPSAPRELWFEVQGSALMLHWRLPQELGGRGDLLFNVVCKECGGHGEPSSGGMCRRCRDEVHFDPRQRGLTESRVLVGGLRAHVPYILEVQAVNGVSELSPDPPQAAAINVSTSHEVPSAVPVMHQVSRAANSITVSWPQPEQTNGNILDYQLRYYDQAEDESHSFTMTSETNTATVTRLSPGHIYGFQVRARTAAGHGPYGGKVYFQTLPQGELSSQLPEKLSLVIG
Procedure: as §1

Measured: binding result

B1: humanized anti-EphA4 monoclonal antibody (antibody B) (antibody, human IgG2, V domains shown)
VH: QVQLVESGGGVVQPGRSLRLSCAVSGFSLTRFGVHWVRQAPGKGLEWVAVIWRGGSTDYNAAFMSRLTISKDNSKNTVYLQMNSLRAEDTAVYYCAKESLFGVYYDYGYYSMDYWGQGTTVTVSS
VL: DIQMTQSPSSLSASVGDRVTITCRASQEISGYLSWLQQKPGKAPKRLIYAASTLDSGVPSRFSGSRSGTEYTLTISSLQPEDFATYYCLQYASYPLTFGGGTKVEIKR
notes: expressed in Expi293F cells; also called humanized antibody of antibody A; HK2-42 / L1-8
no binding (tested: 10 µg/mL): all assays above
